In PMC6662615 (Biochemistry, 2019):

Molecular target: the molecule itself
Assay: dynamic light scattering

B1: recombinant human αB-crystallin (natural protein, UniProt P02511 1-175, looked up)
chain: MDIAIHHPWIRRPFFPFHSPSRLFDQFFGEHLLESDLFPTSTSLSPFYLRPPSFLRAPSWFDTGLSEMRLEKDRFSVNLDVKHFSPEELKVKVLGDVIEVHGKHEERQDEHGFISREFHRKYRIPADVDPLTITSSLSSDGVLTVNGPRKQVSGPERTIPITREEKPAVTAAPKK
Question: Does B1 bind?
Answer: binds
